# Residue numbers refer to the chain shown, from its start. Names and notes keep the numbering of the source.
# B1: 98G10 mutant G55H (VH) (antibody, V domains shown)
# VH: QEQLEESGGDLVKPEGSLTLTCTASGFSFSASYWICWVRQAPGKGLEWIACIYGHSSGSAYYASWAKGRFTISKTSSTTVTLQMTSLTAADTATYFCARAGYYNYGSAGDIYPSSFKLWGPGTLVTVSS
# VL: DIVMTQTPASVEAAVGGTVTINCQASQSISTALAWYQQKPGQPPKLLIYTASKVASGVPSRFSGSGSGTQFTLTISDLECADAATYYCQNYYYSSSSITFGGGTEVVVK
# B2: 98G10 mutant S57Q (VH) (antibody, V domains shown)
# VH: B1 VH with H55G, S57Q
# VL: B1 VL
# B3: 98G10 mutant G55W (VH) (antibody, V domains shown)
# VH: B1 VH with H55W
# VL: B1 VL
# B4: 98G10 mutant S56N (VH) (antibody, V domains shown)
# VH: B1 VH with H55G, S56N
# VL: B1 VL
# B5: 98G10 mutant S57K (VH) (antibody, V domains shown)
# VH: B1 VH with H55G, S57K
# VL: B1 VL
# B6: 98G10 mutant G58V (VH) (antibody, V domains shown)
# VH: B1 VH with H55G, G58V
# VL: B1 VL
# B7: 98G10 mutant S56P (VH) (antibody, V domains shown)
# VH: B1 VH with H55G, S56P
# VL: B1 VL
# B8: 98G10 mutant S57R (VH) (antibody, V domains shown)
# VH: B1 VH with H55G, S57R
# VL: B1 VL
# B9: 39B4 mutant G106Y (VH) (antibody, V domains shown)
# VH: QEQLVESGGGLVQPEGSLTLTCTASGFSFSSSYWICWVRQAPGKGLEWIACIYAGTSGSTYYASWAKGRFTISKTSSTTVDLQMNSLTAADTATYFCARAGYYTYYAGVYIYPSSFKLWGPGTLVTVSS
# VL: B1 VL with I2V, N22K, Q27E, S30G, T31N, T50S, K53N, V54L, N90S
# B10: 39B4 mutant V109K (VH) (antibody, V domains shown)
# VH: B9 VH with Y106G, V109K
# VL: B1 VL with I2V, N22K, Q27E, S30G, T31N, T50S, K53N, V54L, N90S
# B11: 39B4 mutant A107R (VH) (antibody, V domains shown)
# VH: B9 VH with Y106G, A107R
# VL: B1 VL with I2V, N22K, Q27E, S30G, T31N, T50S, K53N, V54L, N90S
# B12: 39B4 mutant A107Q (VH) (antibody, V domains shown)
# VH: B9 VH with Y106G, A107Q
# VL: B1 VL with I2V, N22K, Q27E, S30G, T31N, T50S, K53N, V54L, N90S
# B13: 39B4 mutant V109Q (VH) (antibody, V domains shown)
# VH: B9 VH with Y106G, V109Q
# VL: B1 VL with I2V, N22K, Q27E, S30G, T31N, T50S, K53N, V54L, N90S
# B14: 39B4 mutant Y102F (VH) (antibody, V domains shown)
# VH: B9 VH with Y102F, Y106G
# VL: B1 VL with I2V, N22K, Q27E, S30G, T31N, T50S, K53N, V54L, N90S
# B15: 39B4 mutant G106R (VH) (antibody, V domains shown)
# VH: B9 VH with Y106R
# VL: B1 VL with I2V, N22K, Q27E, S30G, T31N, T50S, K53N, V54L, N90S
# Molecular target: T1, human NMI (N-myc Interacting protein), recombinant protein (human, UniProt Q13287 1-307, limits assumed)
# T1 construct: Gene ID: 9111; also called hNMI; antigen
# T1 sequence (looked up): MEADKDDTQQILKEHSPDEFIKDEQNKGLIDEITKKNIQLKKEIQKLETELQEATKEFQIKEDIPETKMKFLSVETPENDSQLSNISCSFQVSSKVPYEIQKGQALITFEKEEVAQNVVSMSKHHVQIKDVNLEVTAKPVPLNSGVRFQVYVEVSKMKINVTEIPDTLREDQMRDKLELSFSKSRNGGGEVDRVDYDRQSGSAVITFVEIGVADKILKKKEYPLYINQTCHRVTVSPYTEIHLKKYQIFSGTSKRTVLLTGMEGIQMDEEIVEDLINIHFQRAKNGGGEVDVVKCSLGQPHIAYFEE
# Assay: ELISA EC50 against parent 98G10
row,Binder,Fold decrease in affinity
1,B1,> 100 fold
2,B2,> 500 fold
3,B3,> 100 fold
4,B4,> 500 fold
5,B5,> 500 fold
6,B6,> 100 fold
7,B7,> 500 fold
8,B8,> 500 fold

# Molecular target: T1, human NMI (N-myc Interacting protein), …
# Assay: ELISA EC50 against parent 39B4
row,Binder,Fold decrease in affinity
1,B9,> 500 fold
2,B10,> 500 fold
3,B11,> 500 fold
4,B12,> 500 fold
5,B13,> 500 fold
6,B14,> 500 fold
7,B15,> 500 fold
